Assay results as given in IntAct's records for PubMed 15378002.

B1: Transcription factor Jun (Homo sapiens), P05412 (parent)
chain: MTAKMETTFYDDALNASFLPSESGPYGYSNPKILKQSMTLNLADPVGSLKPHLRAKNSDLLTSPDVGLLKLASPELERLIIQSSNGHITTTPTPTQFLCPKNVTDEQEGFAEGFVRALAELHSQNTLPSVTSAAQPVNGAGMVAPAVASVAGGSGSGGFSASLHSEPPVYANLSNFNPGALSSGGGAPSYGAAGLAFPAQPQQQQQPPHHLPQQMPVQHPRLQALKEEPQTVPEMPGETPPLSPIDMESQERIKAERKRMRNRIAASKCRKRKLERIARLEEKVKTLKAQNSELASTANMLREQVAQLKQKVMNHVNSGCQLMLTQQLQTF
partner: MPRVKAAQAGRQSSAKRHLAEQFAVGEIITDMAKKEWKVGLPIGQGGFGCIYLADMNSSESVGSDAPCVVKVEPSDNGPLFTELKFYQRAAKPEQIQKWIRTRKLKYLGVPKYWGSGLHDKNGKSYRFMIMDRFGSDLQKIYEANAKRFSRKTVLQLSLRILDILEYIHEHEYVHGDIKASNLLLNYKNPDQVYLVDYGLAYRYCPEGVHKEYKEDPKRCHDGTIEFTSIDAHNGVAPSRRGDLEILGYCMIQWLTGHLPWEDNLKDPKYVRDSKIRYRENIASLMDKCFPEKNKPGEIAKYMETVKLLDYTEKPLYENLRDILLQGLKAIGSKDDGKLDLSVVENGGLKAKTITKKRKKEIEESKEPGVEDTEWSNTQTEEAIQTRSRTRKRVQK
B2: Serine/threonine-protein kinase VRK1 (Homo sapiens), Q99986 (parent)
chain: B1 partner

Variants of: B1
Details: with vrk1_human VRK1, Q99986

| Variant | effect of a mutation on the interaction |
| --- | --- |
| S63A;S73A | decreasing interaction |

Variants of: B2
Details: with jun_human JUN, P05412

| Variant | effect of a mutation on the interaction |
| --- | --- |
| K179E | disrupting interaction |
